Measured values as given in the supplement of paper PMC10567573.
± gives the standard deviation.

Assay: protein stability index of a GFP-peptide fusion (GPS, HEK-293T) (PSI 1-6); higher = more stable
[1] = treatment: DMSO, c terminus: a fixed tail appended
[2] = treatment: MLN4924 1 uM, 8 h, c terminus: a fixed tail appended
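Further: 24-mer peptide tiles fused after GFP, lentivirally expressed, FACS-sorted into six equal bins by GFP/DsRed ratio, decoded by Illumina sequencing, PSI is the read-weighted mean bin number.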

| Sequence | protein stability index [1] | protein stability index [2] | protein stability index (treatment: DMSO, c terminus: native) | protein stability index (treatment: MLN4924 1 uM, 8 h, c terminus: native) |
| --- | --- | --- | --- | --- |
| GNLQLDCLAQGWKQYQQRAFGWFR [RTP4] | 2.3 ± 0.5 | 2.24 ± 0.23 |  |  |
| GPGPQLRRGWRPSSREDSLEAGLP [CHGA] | 3.86 ± 0.14 | 4.24 ± 0.31 |  |  |
| GPHEAFNKLWELCCQWLKPKMRSK [ZNF449] | 2.67 ± 0.88 | 2.99 ± 0.71 |  |  |
| GPVGTDFKPLNSTPATTTEPPKPT [ZNF207] | 5.24 ± 0.21 | 5.19 ± 0.23 |  |  |
| GQALLTHLYQSSARRYAGPLHHQT [ELAVL3] | 2.4 ± 0.14 | 2.71 ± 0.097 |  |  |
| GRHLELANQKLSEKLAAGALPHIN [CCDC3] | 3.46 ± 0.42 | 3.79 ± 0.36 |  |  |
| GRTHQWKPLYPDDYVHISSKPCDL [ADAMTSL2] | 3.25 ± 0.3 | 3.42 ± 0.093 |  |  |
| GRVLLANSTQADEGKTKKGVLEAP [FBXO34] | 5.01 ± 0.17 | 4.9 ± 0.13 |  |  |
| GSNEYTEGPSVVKRPAPRTAPRQE [SPRY1] | 4.9 ± 0.28 | 5.3 ± 0.17 |  |  |
| GSNLDDAKGLAESLELPKAIQDQL [FANCE] | 5.08 ± 0.53 | 5.3 ± 0.33 |  |  |
| GSSRSPGSKARAEGRGPVTPLHLD [PLEKHN1] | 4.91 ± 0.16 | 4.74 ± 0.21 |  |  |
| GTDRIVKIWDMTPVVGCSLATGFS [WDFY1] | 2.66 ± 0.16 | 2.79 ± 0.48 |  |  |
| GTELIQTPLASSTDHQTPPTSPVQ [HDAC6] | 5.11 ± 0.33 | 5.25 ± 0.29 |  |  |
| GTFCSLDICLAQLEELGTLNVFQT [PTPN9] | 2.93 ± 0.92 | 2.24 ± 0.46 |  |  |
| GTVHCQIVSTQITRPSGNNGNRRR [PHTF1] | 4.25 ± 0.18 | 4.51 ± 0.21 |  |  |
| GVRESETEQGFGEDLEDLGAVAPP [NFE2L1] | 5.763 ± 0.026 | 5.9 ± 0.1 |  |  |
| GVYSMPAGTKVFEVPEMSPVTCCD [TLE6] | 3.84 ± 0.33 | 3.45 ± 0.24 |  |  |
| HAGEHLLLGATKRSMVFKDVLLLG [HNF4A] | 2.26 ± 0.33 | 2.35 ± 0.4 |  |  |
| HCPDCGQQWFPSLELGHWLYQTEL [TOR1AIP2] | 2.31 ± 0.57 | 2.52 ± 0.41 |  |  |
| HCRKCGQAVCGKCSSKRSSYPVMG [WDFY1] | 3.88 ± 0.3 | 3.91 ± 0.34 |  |  |
| HFSQGSALILHQRIHSGEKPYGCV [ZNF24] | 2.24 ± 0.37 | 2.55 ± 0.47 |  |  |
| HFSQIVIFMLCTLVLAIPLLLILV [OR10K2] | 2.24 ± 0.25 | 2.25 ± 0.19 |  |  |

| Sequence | protein stability index [1] | protein stability index [2] | protein stability index (treatment: DMSO, c terminus: native) | protein stability index (treatment: MLN4924 1 uM, 8 h, c terminus: native) |
| --- | --- | --- | --- | --- |
| HGNSGHPLVLSYIDLSAWCYYCQA [HDAC6] | 2.73 ± 0.55 | 3.14 ± 0.58 |  |  |
| HHREGLLAIFKSGGIPALVKMLGS [CTNNB1] | 2.82 ± 0.39 | 2.71 ± 0.64 |  |  |
| HHSRGNTNKFYMLDSRSTDRVLQW [KLHDC2] | 2.65 ± 0.39 | 2.72 ± 0.19 |  |  |
| HITKLKPWSLFDVLVEKYGWPHED [SRPK2] | 2.23 ± 0.33 | 2.38 ± 0.11 |  |  |
| HKVKAEEEKKAKVAPPAKQAQQKK [BRD3] | 5.5 ± 0.22 | 5.5 ± 0.29 |  |  |
| HLFAGAEVILLVVMAYDRYMAICK [OR4A15] | 2.67 ± 0.29 | 3.02 ± 0.68 |  |  |
| HLYAEPQKSPWCEARSLEHTLPVN [ESR2] | 2.93 ± 0.23 | 3.38 ± 0.24 |  |  |
| HLYQSSARRYAGPLHHQTQRFRLD [ELAVL3] | 2.99 ± 0.18 | 3.05 ± 0.32 |  |  |
| HNQIAIYAHQPRTADEIPMEPGDI [FUT8] | 4.6 ± 0.19 | 4.52 ± 0.18 |  |  |
| HNRKKHLNGLQHLKAKKVWYDMFR [ZMAT5] | 2.22 ± 0.44 | 2.38 ± 0.27 |  |  |
| HNSGPPPPPARGRGAPPPPPSRAP [WASL] | 5.25 ± 0.29 | 5.06 ± 0.15 |  |  |
| HNTVKLGAFQAQEKELVFDIDMTD [PRIM1] | 4.22 ± 0.19 | 4.52 ± 0.28 |  |  |
| HPLAQNERCLHMFLQEEAIDRNYV [SNX12] | 3.17 ± 0.4 | 3.18 ± 0.28 |  |  |
| HQRKYTQSFCGENIMMPMGGMMPP [ZNF207] | 2.34 ± 0.15 | 2.49 ± 0.16 |  |  |
| HRDMKPDNILLDEHDTWLSYKSH [STK32A] |  |  | 3.68 ± 0.27 | 3.94 ± 0.27 |
| HRSSRETRDYAPPSRGHAYRDYGH [RBMY1A1] | 3.87 ± 0.18 | 3.92 ± 0.17 |  |  |
| HSFELDEKALASILLQDHIRDLDV [ATL3] | 3.26 ± 0.33 | 3.26 ± 0.29 |  |  |
| HSFFPDAFDYNSLSPTQRQKNFEL [SMTNL2] | 3.35 ± 0.19 | 3.44 ± 0.4 |  |  |
| HTSTARLLLHRGAGKEAMTSDGYT [RIPK4] | 3.61 ± 0.22 | 3.75 ± 0.29 |  |  |
| HVLPAVLAEVAPVVTTEHILVSVA [PYCR3] | 2.65 ± 0.63 | 2.8 ± 0.72 |  |  |
| HVMNPLETLSITNCRLSEGDVMHL [PRAME] | 2.54 ± 0.79 | 2.4 ± 0.24 |  |  |
| HYANLNGLYGSTVDHQGVSWYHWK [TNXB] | 2.5 ± 0.14 | 2.8 ± 0.66 |  |  |

| Sequence | protein stability index [1] | protein stability index [2] | protein stability index (treatment: DMSO, c terminus: native) | protein stability index (treatment: MLN4924 1 uM, 8 h, c terminus: native) |
| --- | --- | --- | --- | --- |
| HYFHSISYKIEEISPSTLKNSLFP [KCNK9] | 2.17 ± 0.28 | 2.18 ± 0.18 |  |  |
| HYGGVVSLIPLILDLMKEWIAHSE [SPACA9] | 3.02 ± 0.46 | 2.23 ± 0.46 |  |  |
| ICARACNATLTQYQLLATHVPTVW [RHOBTB2] | 2.67 ± 0.13 | 2.41 ± 0.4 |  |  |
| ICIMDAENITTVSVIKDHHTRSIT [WDR88] | 2.34 ± 0.31 | 2.18 ± 0.24 |  |  |
| IDDRYGDLDSRTDSDIPEIPPSSD [CDS1] | 5.43 ± 0.34 | 5.45 ± 0.19 |  |  |
| IEIGCEDKTLAFKMNGYISNANYS [MLH1] | 2.34 ± 0.3 |  |  |  |
| IELEGISVMVMREILDYIFSGQIR [GAN] | 3.37 ± 0.23 | 2.86 ± 0.49 |  |  |
| IERANNVKYGLAATVWSSNVGRVH [ALDH8A1] | 2.66 ± 0.29 | 2.8 ± 0.25 |  |  |
| IFCEEHFPVAEQDKLLKHMIIEHK [ZNF277] | 2.75 ± 0.23 | 3.01 ± 0.4 |  |  |
| IFNHERFFWHLTLPERRGTCADRD [CASP6] | 2.6 ± 0.21 | 2.93 ± 0.27 |  |  |
| IGFGVYFEWTDSPNTAVSVHVSES [ACBD3] | 2.64 ± 0.9 | 2.95 ± 0.6 |  |  |
| IGGNHLKGFSHLDVMLVECYDPKG [KLHL14] | 2.11 ± 0.47 | 2.21 ± 0.34 |  |  |
| IGLWGLAVKGSLGSDLGGPLPTDP [TSPAN10] | 2.32 ± 0.27 | 2.39 ± 0.29 |  |  |
| IGRGTKVILHLKEDQTEYLEERRV [HSP90AB1] | 3.34 ± 0.16 | 3.57 ± 0.29 |  |  |
| IHDSEFKEYTTRTQAPPSVILGVT [DENND6A] | 3.22 ± 0.17 | 3.29 ± 0.31 |  |  |
| IHSIALSTFASLIGPFGGFFASGF [CDS2] | 3.12 ± 0.2 | 2.99 ± 0.16 |  |  |
| IHSIPKGTEITIAFDFDYGNCKYK [KMT2E] | 2.19 ± 0.31 | 1.98 ± 0.32 |  |  |
| IKECLSKGTFSDVTFKLDDGAISA [RHOBTB1] | 3.67 ± 0.18 | 3.95 ± 0.19 |  |  |
| IKKIEEHAPGVPKILVGNRLHLAF [RAB40A] | 2.39 ± 0.5 | 2.27 ± 0.2 |  |  |
| IKRLWKDSGVQACFNRSREYQLND [GNAI1] | 2.4 ± 0.41 | 2.44 ± 0.72 |  |  |
| ILDAMAEETRQKQLLADEKMKQLT [TRIM35] | 4.52 ± 0.23 | 4.68 ± 0.21 |  |  |
